Assay results published in PMC4364296.

Molecular target: T1, His-SlmA/SBS (E. coli), P0C093
T1 chain: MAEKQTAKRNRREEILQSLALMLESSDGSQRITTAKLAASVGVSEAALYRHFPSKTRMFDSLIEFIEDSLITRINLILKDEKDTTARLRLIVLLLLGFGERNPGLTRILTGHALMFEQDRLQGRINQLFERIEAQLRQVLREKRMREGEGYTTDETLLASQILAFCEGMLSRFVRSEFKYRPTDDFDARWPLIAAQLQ
Test: BLI
Conditions: remark: other sources report otherwise

B1: FtsZ-360, P0A9A6 1-360 (domain or fragment)
chain: MFEPMELTNDAVIKVIGVGGGGGNAVEHMVRERIEGVEFFAVNTDAQALRKTAVGQTIQIGSGITKGLGAGANPEVGRNAADEDRDALRAALEGADMVFIAAGMGGGTGTGAAPVVAEVAKDLGILTVAVVTKPFNFEGKKRMAFAEQGITELSKHVDSLITIPNDKLLKVLGRGISLLDAFGAANDVLKGAVQGIAELITRPGLMNVDFADVRTVMSEMGYAMMGSGVASGEDRAEEAAEMAISSPLLEDIDLSGARGVLVNITAGFDLRLDEFETVGNTIRAFASDNATVVIGTSLDPDMNDELRVTVVATGIGMDKRPEITLVTNKQVQQPVMDRYQQHGMAPLTQEQKPVAKVVND
Binder B1 has a Kd of 82 µM.
